Laboratory results as given in publication PMC6239434, “Angiopoietin-4-dependent venous maturation and fluid drainage in the peripheral retina” (eLife, 2018).

Legend:
TIE2 (Homo sapiens) = TIE2 (Homo sapiens) (UniProt Q02763); conditions: cited from earlier work
[1] = target: the molecule itself; test: non-reducing SDS polyacrylamide gel electrophoresis; purified recombinant angiopoietins run under non-reducing and reducing (1% 2-mercaptoethanol) conditions; oligomerization and multimerization states

TIE2 (Homo sapiens), sequence (Q02763 23-748): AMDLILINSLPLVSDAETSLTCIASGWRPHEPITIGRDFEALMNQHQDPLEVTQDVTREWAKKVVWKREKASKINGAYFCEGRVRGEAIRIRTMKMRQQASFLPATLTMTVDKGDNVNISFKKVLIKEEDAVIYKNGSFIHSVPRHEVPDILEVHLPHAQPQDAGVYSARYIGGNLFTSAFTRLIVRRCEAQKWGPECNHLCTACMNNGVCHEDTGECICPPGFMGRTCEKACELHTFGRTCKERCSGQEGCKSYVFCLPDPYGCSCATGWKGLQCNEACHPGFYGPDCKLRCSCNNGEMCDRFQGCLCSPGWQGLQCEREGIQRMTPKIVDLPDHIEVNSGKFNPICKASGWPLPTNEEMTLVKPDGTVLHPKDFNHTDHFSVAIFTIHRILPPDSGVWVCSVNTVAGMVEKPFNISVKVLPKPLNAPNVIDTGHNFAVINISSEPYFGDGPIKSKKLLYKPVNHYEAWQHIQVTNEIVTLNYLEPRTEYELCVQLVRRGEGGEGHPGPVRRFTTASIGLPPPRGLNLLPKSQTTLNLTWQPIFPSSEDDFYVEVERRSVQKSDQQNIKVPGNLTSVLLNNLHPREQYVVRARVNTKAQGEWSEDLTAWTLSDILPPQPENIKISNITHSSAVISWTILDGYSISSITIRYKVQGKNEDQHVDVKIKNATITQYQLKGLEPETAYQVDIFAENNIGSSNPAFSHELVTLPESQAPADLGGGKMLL

Angiopoietin-1 (from UniProt Q15389)
Kd (TIE2 (Homo sapiens)): 3.7 nM

B1: Purified recombinant human ANGPT4 (ligand, UniProt Q9Y264 25-503, looked up)
chain: TRQEADRGCETLVVQHGHCSYTFLLPKSEPCPPGPEVSRDSNTLQRESLANPLHLGKLPTQQVKQLEQALQNNTQWLKKLERAIKTILRSKLEQVQQQMAQNQTAPMLELGTSLLNQTTAQIRKLTDMEAQLLNQTSRMDAQMPETFLSTNKLENQLLLQRQKLQQLQGQNSALEKRLQALETKQQEELASILSKKAKLLNTLSRQSAALTNIERGLRGVRHNSSLLQDQQHSLRQLLVLLRHLVQERANASAPAFIMAGEQVFQDCAEIQRSGASASGVYTIQVSNATKPRKVFCDLQSSGGRWTLIQRRENGTVNFQRNWKDYKQGFGDPAGEHWLGNEVVHQLTRRAAYSLRVELQDWEGHEAYAQYEHFHLGSENQLYRLSVVGYSGSAGRQSSLVLQNTSFSTLDSDNDHCLCKCAQVMSGGWWFDACGLSNLNGVYYHAPDNKYKMDGIRWHYFKGPSYSLRASRMMIRPLDI
notes: human angiopoietin-4 (ANGPT4), purified recombinant protein from R & D Systems; Forms dimeric and higher oligomeric/multimeric complexes on non-reducing SDS-PAGE; also called angiopoietin-4; source: bought: R & D Systems (purified recombinant)
binding result [1]: binds

B2: Purified recombinant human ANGPT2 (ligand, UniProt O15123 19-496, looked up)
chain: YNNFRKSMDSIGKKQYQVQHGSCSYTFLLPEMDNCRSSSSPYVSNAVQRDAPLEYDDSVQRLQVLENIMENNTQWLMKLENYIQDNMKKEMVEIQQNAVQNQTAVMIEIGTNLLNQTAEQTRKLTDVEAQVLNQTTRLELQLLEHSLSTNKLEKQILDQTSEINKLQDKNSFLEKKVLAMEDKHIIQLQSIKEEKDQLQVLVSKQNSIIEELEKKIVTATVNNSVLQKQQHDLMETVNNLLTMMSTSNSAKDPTVAKEEQISFRDCAEVFKSGHTTNGIYTLTFPNSTEEIKAYCDMEAGGGGWTIIQRREDGSVDFQRTWKEYKVGFGNPSGEYWLGNEFVSQLTNQQRYVLKIHLKDWEGNEAYSLYEHFYLSSEELNYRIHLKGLTGTAGKISSISQPGNDFSTKDGDNDKCICKCSQMLTGGWWFDACGPSNLNGMYYPQRQNTNKFNGIKWYYWKGSGYSLKATTMMIRPADF
notes: human angiopoietin-2 (ANGPT2), purified recombinant protein from R & D Systems; Runs predominantly as disulfide-linked dimers on non-reducing SDS-PAGE; also called angiopoietin-2; source: bought: R & D Systems (purified recombinant)
stoichiometry N [1]: 2

B3: Purified recombinant mouse Angpt4 (ligand, UniProt Q9WVH6 22-509, looked up)
chain: QHRGPEAGGHRQIHQVRRGQCSYTFVVPEPDICQLAPTAAPEALGGSNSLQRDLPASRLHLTDWRAQRAQRAQRVSQLEKILENNTQWLLKLEQSIKVNLRSHLVQAQQDTIQNQTTTMLALGANLMNQTKAQTHKLTAVEAQVLNQTLHMKTQMLENSLSTNKLERQMLMQSRELQRLQGRNRALETRLQALEAQHQAQLNSLQEKREQLHSLLGHQTGTLANLKHNLHALSSNSSSLQQQQQQLTEFVQRLVRIVAQDQHPVSLKTPKPVFQDCAEIKRSGVNTSGVYTIYETNMTKPLKVFCDMETDGGGWTLIQHREDGSVNFQRTWEEYKEGFGNVAREHWLGNEAVHRLTSRTAYLLRVELHDWEGRQTSIQYENFQLGSERQRYSLSVNDSSSSAGRKNSLAPQGTKFSTKDMDNDNCMCKCAQMLSGGWWFDACGLSNLNGIYYSVHQHLHKINGIRWHYFRGPSYSLHGTRMMLRPMGA
notes: mouse angiopoietin-4 (Angpt4, previously named Ang3), purified recombinant protein from R & D Systems; also called angiopoietin-4; Ang3; source: bought: R & D Systems (purified recombinant)
binding result [1]: binds

B4: Purified recombinant human ANGPT1 (ligand, UniProt Q15389 16-498, looked up)
chain: HIGCSNQRRSPENSGRRYNRIQHGQCAYTFILPEHDGNCRESTTDQYNTNALQRDAPHVEPDFSSQKLQHLEHVMENYTQWLQKLENYIVENMKSEMAQIQQNAVQNHTATMLEIGTSLLSQTAEQTRKLTDVETQVLNQTSRLEIQLLENSLSTYKLEKQLLQQTNEILKIHEKNSLLEHKILEMEGKHKEELDTLKEEKENLQGLVTRQTYIIQELEKQLNRATTNNSVLQKQQLELMDTVHNLVNLCTKEGVLLKGGKREEEKPFRDCADVYQAGFNKSGIYTIYINNMPEPKKVFCNMDVNGGGWTVIQHREDGSLDFQRGWKEYKMGFGNPSGEYWLGNEFIFAITSQRQYMLRIELMDWEGNRAYSQYDRFHIGNEKQNYRLYLKGHTGTAGKQSSLILHGADFSTKDADNDNCMCKCALMLTGGWWFDACGPSNLNGMFYTAGQNHGKLNGIKWHYFKGPSYSLRSTTMMIRPLDF
notes: human angiopoietin-1 (ANGPT1), purified recombinant protein from R & D Systems; Forms various-sized oligomers/multimers on non-reducing SDS-PAGE; also called angiopoietin-1; source: bought: R & D Systems (purified recombinant)
binding result [1]: binds
